Numbering of substitutions follows the chain as printed. Names may count otherwise.
B1: N-terminus FLAG-tagged mutant SMAGP^T7A,T17A expressed on Ramos cells (other, UniProt Q0VAQ4 1-97, looked up)
chain: MTSLLTAPSPREELMTAPILQPTEALSPEDGASTALIAVVITVVFLTLLSVVILIFFYLYKNKGSYVTYEPTEGEPSAIVQMESDLAKGSEKEEYFI
notes: whole, on cells; Double glycosylation-site mutant; also called T7A and T17A double mutations on SMAGP; not shown: N-terminal FLAG tag
B2: N-terminus FLAG-tagged mutant SMAGP^T7A,S9A expressed on Ramos cells (other, UniProt Q0VAQ4 1-97, looked up)
chain: B1 chain with S9A, A17T
notes: whole, on cells; Double glycosylation-site mutant; not shown: N-terminal FLAG tag
B3: N-terminus FLAG-tagged mutant SMAGP^T6A,T7A expressed on Ramos cells (other, UniProt Q0VAQ4 1-97, looked up)
chain: B1 chain with T6A, A17T
notes: as for B2

target: T1, human recombinant PILRa-Fc protein (human, UniProt Q9UKJ1 20-196, limits assumed); test: flow cytometry, PILRa-Fc on Ramos cells expressing FLAG-SMAGP mutant, anti-human-IgG-PE secondary
T1 construct: Recombinant protein; also called human PILRa-Fc; not shown: Fc part
T1 sequence (Q9UKJ1 20-196 limits assumed): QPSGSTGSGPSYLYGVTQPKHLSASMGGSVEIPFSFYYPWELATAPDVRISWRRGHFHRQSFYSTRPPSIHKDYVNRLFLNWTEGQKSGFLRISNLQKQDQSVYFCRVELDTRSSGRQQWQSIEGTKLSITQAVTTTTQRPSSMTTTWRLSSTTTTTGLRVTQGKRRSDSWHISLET

Row | Binder | binding result
1 | B1 | no binding
2 | B2 | no binding
3 | B3 | no binding

— patent publication US20260042859A1 (Stanford University, published 2026)
